Assay results taken from article PMC2831328.

Target: HCV NS3 helicase (WT) (Hepatitis C virus (subgenomic replicon …, UniProt Q9WMX2 1027-1657))
Assay: competition

HCV NS3 helicase (WT) (Hepatitis C virus, sequence (Q9WMX2 1027-1657): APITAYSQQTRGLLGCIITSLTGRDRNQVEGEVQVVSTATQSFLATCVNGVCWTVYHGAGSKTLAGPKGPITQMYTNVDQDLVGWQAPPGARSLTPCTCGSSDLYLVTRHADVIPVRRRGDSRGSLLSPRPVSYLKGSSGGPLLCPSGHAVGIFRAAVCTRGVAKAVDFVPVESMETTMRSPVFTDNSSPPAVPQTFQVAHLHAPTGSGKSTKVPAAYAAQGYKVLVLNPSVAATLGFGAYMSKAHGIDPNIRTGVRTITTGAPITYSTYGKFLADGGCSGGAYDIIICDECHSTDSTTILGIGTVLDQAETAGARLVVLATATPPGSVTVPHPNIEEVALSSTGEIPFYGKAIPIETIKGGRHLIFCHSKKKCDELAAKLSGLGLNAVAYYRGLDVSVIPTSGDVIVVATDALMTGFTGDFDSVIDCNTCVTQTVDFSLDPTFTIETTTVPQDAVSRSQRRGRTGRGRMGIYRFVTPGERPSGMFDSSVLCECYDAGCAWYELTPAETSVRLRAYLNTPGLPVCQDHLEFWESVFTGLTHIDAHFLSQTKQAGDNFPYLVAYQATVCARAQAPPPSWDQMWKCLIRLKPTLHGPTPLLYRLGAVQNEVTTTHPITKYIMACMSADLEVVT

B1: ds9 (competitor duplex) (dsRNA)
RNA 1: GCCGCCCGG
RNA 2: CCGGGCGGC
**Q.** How did the Ki turn out when B1 was run?
**A.** 90 ± 20 nM
